Experimental data as given in the supplement of paper PMC9170038.

Test system: MS2 coat protein
Test: apparent KD of MS2 coat protein; designed switch direction (-1 OFF switch, 1 ON switch): -1; higher = weaker reporter binding
Summary of the method: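 Apparent KD, taken as the median over clusters for each design, was obtained by curve-fitting normalised cluster fluorescence. Designed RNA switches had been transcribed on Illumina chips by stalled E. coli RNA polymerase and titrated with SNAP-549-labelled MS2 coat protein, doubling from 0.7 or 1.5 nM to 3 µM.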

[1] = Eterna round: R95, input ligand: microRNA oligo, concentration not stated
[2] = Eterna round: R95, input ligand: FMN 200 uM
[3] = Eterna round: R95, input ligand: none
[4] = input ligand: microRNA oligo, concentration not stated

Sequence	apparent KD of MS2 coat protein [1] [nM]	apparent KD of MS2 coat protein (input ligand: FMN 200 uM) [nM]	apparent KD of MS2 coat protein (input ligand: none) [nM]	apparent KD of MS2 coat protein [2] [nM]	apparent KD of MS2 coat protein [3] [nM]	apparent KD of MS2 coat protein [4] [nM]
GUAGGGUCAGGAUAUACUGGCUGAGGGAUGUAUUGUAGUUGGUAGAAGGGACAUGAGGAUCACCCAUGUAAGAA [JR_Exclu4_Sub056] (puzzle: Exclusion 4)	31.6					
AGCAUGCAGUAGGAUAUCGAUCCACAAUAUGAACGAGAAGGGCUGACAUGAGGAUCACCCAUGUGCGUCCGAAG [Ersoontiri] (Eterna round: R97, puzzle: Exclusion 6)		21	16.8			
CUCCAGCAAGGAUAUACAUAGUGACGUCUGUUUAAUCUUAAACAUGAGGAUCACCCAUGUAGAAGGUGCGUCAC [Biqugeza] (Eterna round: R97, puzzle: Exclusion 2)		19.4	17.1			
CUGGUCCGAGGAUAUAUUAUGUGAUACAUGAGGAUCACCCAUGUUAUAUGAUGGAUGUUAGUAGAAGGCGGACUAC [salish99_ex5_r3_001] (puzzle: Exclusion 5)	69.9			102	101	
GCAGAAUGAGUUAGGAUAUGAUGAUUUUUUUUAUAUCAGAAGGAACUUGAGGAUCACCCAAGUUAAGAUAGGGU [JR_BMEx4_Sub067] (Eterna round: R97, puzzle: Brourd's mod of Exclusion 4)		89.2	138			
GGUACUAACACGAGAGUGUUAGUACUAUAAGCUUGUGUUACAUGAGGAUCACCCAUGUCCUCAUAGGCUCGUCUUAU [Mat - Sensor v3 - Turn-off var 2 - D80] (puzzle: Sensor v3, turn-off variant 2)	25.8			209	231	
AGAGUGGAGACAGGAUAUGAGAAUAGAUAGAAAUCAGAAGGGUCACAUGAGGAUCACCCAUGUAAAGUCUUGAGGAUGAGUGAU [Prohibition 1 - Jieux - Exclusion NG1] (Eterna round: R96, puzzle: Exclusion NG 1)		156	81.7			65.3
AAUAAUAAGGAGGAUAUCCUAACCGAAAGGUUAGGAGAAGGCCUAACAUGAGGAUCACCCAUGUUCCUCAAUAA [Mat - Exclusion 6 - Eli Mod - D57] (puzzle: Exclusion 6)	236			318	118	
UUAGAAUUGUUAGGAUAUUAAUUAUUUUUUAGUAUGAUCUACAUGAGGAUCACCCAUGUUAAAUAUAAGAAGGAACGUUAUAUU [JR_ExcNG2_Sub096] (Eterna round: R96, puzzle: Exclusion NG 2)						49.9
GGUUGGCGAGGAUAUACAUGAGGAUCACCCAUGUGCGAGAAAAAAGUGAGGAAGAAAAGUAGAAGGCGCUGACG [salish99_ex3_r3_018] (puzzle: Exclusion 3)	49.5			238	58.2	
CUGAGCAGACGGAGAUCCAACAUGAGGAUCACCCAUGUCUCAAAAGCUUUUUGCUUGUCUUAUUCUCCUCUGUUCAC [Enradibe] (puzzle: Sensor v3, turn-off variant 1)	31.6			13.2	11.2	
GACCAGGUAGGAUAUGCAGGGUCGGACUUGAGGAUCACCCAAGUGGCCAAAGUGCGUCCCGCAGAAGGGCCGAAAA [Isisusge] (Eterna round: R97, puzzle: Exclusion 5)		215	1230			
GGUCCUGAUGAUUUCCUAUACAUGAGGAUCACCCAUGUAUGUGUAUUUUGUUUUUCGCUUUUUGGUCGUCAAUAAUA [Mod-Hoo-honey-2] (Eterna round: R97, puzzle: Sensor, turn-off variant 1)		32.6	33.4			
CCGGAACAUGAGGAUCACCCAUGUCAGGAUAUCUCAAAAUCGUCGAAAGACGAUAACAAGAGAAGGGACACCGG [Eli x1 4.30] (Eterna round: R97, puzzle: Exclusion 1)		20.9	16.4			
CAUGAUUGGCGAGGAUAUUGUUCUACAUGGCGACGAGAAGGCGCCUGUCACAUGAGGAUCACCCAUGUGAGUCUGGUGAAUGAG [Ex NG1 #84] (Eterna round: R96, puzzle: Exclusion NG 1)		27	22.2			16.6
AAUAAUGGAGGAUAUACAUGAGGAUCACCCAUGUGAAUAAAAUAAAUAAAAUGAUAAAGUAGAAGGCCAAAUAA [JMF's solution 2] (puzzle: Exclusion 3)	39.9			42.7	53.6	
AGUAGAUCUACGCUUGCGUGGAUCUGCAAUGCAAGUGUUACAUGAGGAUCACCCAUGUCCUCAUUUGCUCGUCUUAG [JL turnoff v2 99.05] (puzzle: Sensor v3, turn-off variant 2)	108			41.4	45.4	

Sequence	apparent KD of MS2 coat protein [1] [nM]	apparent KD of MS2 coat protein (input ligand: FMN 200 uM) [nM]	apparent KD of MS2 coat protein (input ligand: none) [nM]	apparent KD of MS2 coat protein [2] [nM]	apparent KD of MS2 coat protein [3] [nM]	apparent KD of MS2 coat protein [4] [nM]
UGUUGUCGCGUAGGAUAUUGUCAACAGGCAAUAGGAUAUGCGAAAGCAGAAGGAUCGCCAACAGGCGAGAAGGACGGGACAACU [pwkr exNG2 2xF7 2xFMN.5] (Eterna round: R96, puzzle: Exclusion NG 2)		142	1140			913
AAGUACCGUCACGAUAGUGAUGGUACAACAAGCAGUGAAACAUGAGGAUCACCCAUGUCCUCGAUUGCUCGUCUUAU [Sensor 3 - 80] (puzzle: Sensor v3, turn-off variant 2)	142			67.7	66.3	
CGAAGUAGAAACCGAUCCUACAUGAGGAUCACCCAUGUAGCAAGACGUGCACGCGAAGCUCGUCAGACUACCAGAAA [salish99_TOv1_r3_016] (puzzle: Sensor v3, turn-off variant 1)	213			200	304	
UAUGAUGCAGGAUAUACAUGAGGAUCACCCAUGUCUCCAAGGGAUAAAGCCAGGCGCUGUAGAAGGGCGACGAC [Eternabot (L1) Solution 28] (Eterna round: R97, puzzle: Exclusion 3)		26.9	27.4			
CCGAUCAGUGUCAGGAUAUCUACAGGACUGCCUCGAGAGAAGGGACAUGAGGAUCACCCAUGUACCCGGGCAAG [BmEX4 B.2] (Eterna round: R97, puzzle: Brourd's mod of Exclusion 4)		15	12.8			
GACUGCUGAGGAUAUACAUGAGGAUCACCCAUGUGCUUCAGUAUCGAAAGAUACAUUGGUAGAAGGUGGUAGUC [LRO-Excl3-08] (puzzle: Exclusion 3)	14.9					
AGUACUAACACGAAAGUGUUAGUACAAUAAGCUAGUGGAACAUGAGGAUCACCCAUGUCCUCAUUAGCUCGUCUUGU [Mat - Sensor v3 - Turn-off var 2 - D39] (puzzle: Sensor v3, turn-off variant 2)	34.8			16.2	12.5	
CCUAUGUGAGGAUAUGGUGUUGGCCACAAGGAAAAGCUCCUCCAGAAGGCACAUGAGGAUCACCCAUGUCGUGG [Jolly's Folly 25 - Jieux - Exclusion 4] (Eterna round: R96, puzzle: Exclusion 4)		212	61.1			48.2
CGCAAAACCGUAAGGAUAUCCUUUCCGAAAGGGACGGAGAAGGUACAUGAGGAUCACCCAUGUCCUCCGAGCUG [Eternabot (Original) Solution 18] (Eterna round: R97, puzzle: Brourd's mod of Exclusion 4)		20.6	18			
UCGCUCCGUGUAGGAUAUCGUUGUAUGAUGCGGCGAGAAGGACAUGAGGAUCACCCAUGUAUGUUAUUAUCACGCGUGGCGCAA [Design 65] (Eterna round: R96, puzzle: Exclusion NG 1)		18.5	20.6			15.3
GAUCAACAUGAGGAUCACCCAUGUGAGGAUAUGUAUCAUAGAUCUUCGGAUCUAUGAUACAGAAGGCAUGUGGA [Ex1-3: 100c] (puzzle: Exclusion 1)	144					
UAGAUGGGAGGAUAUACGUAGUUGCAGGUUCGUGUGGUGCUACAUGAGGAUCACCCAUGUAGAAGGCCCGUCUU [JL-ex2-2.30 Mayanne mod] (puzzle: Exclusion 2)	13.3					
GAAAAGGUAGGAUAUACGAAAAAAAAGGGUAGAAAAAAAAUACAUGAGGAUCACCCAUGUAGAAGGACCAAAAG [salish99_ex2_r3_060] (puzzle: Exclusion 2)	23.3			24.4	22.5	
GAGCUGUGAGGAUAUACAUGAGGAUCACCCAUGUUAAGGAAGUGGUGAAUAAUUUAGUGUAGAAGGCACUUAUU [JR_Ex3_Sub023] (Eterna round: R97, puzzle: Exclusion 3)		530	116			
UGUUGUUACGCAGGAUAUGCAUGAGGAUCACCCAUGCAACCACAUUUAACAUGAGGAUCACCCAUGUAGAAGGGCGGGUUAACA [pwkr exNG2 2xF5 1xFMN.1] (Eterna round: R96, puzzle: Exclusion NG 2)		77.5	28			20.4
UUUAAACUUACAAUCUUCGCUGGCAUGCUUGUGCCAGCUACAUGAGGAUCACCCAUGUUUUUUGCUCGUCUUAUUCU [Usre] (puzzle: Sensor v3, turn-off variant 2)				23.5	25.1	
UAUCCUCAAGUGAGGAUAUGACGGUCAAGACGCGUUCAGAAGGCACAUGAGGAUCACCCAUGUGAUAAAGGAAU [Eternabot (L2) Solution 38] (Eterna round: R97, puzzle: Brourd's mod of Exclusion 4)		91.7	20.6			
